Assay results taken from patent US12227593B2, “Site-specific conjugation of glycosylated monoclonal antibodies with transglutaminase” (Janssen Biotech, Inc., priority 2020, dated 2025).

Target: T1, MTG (Streptomyces mobaraensis, UniProt P81453)
T1 construct: purchased Activa TI or Zedira
T1 sequence (P81453 77-407): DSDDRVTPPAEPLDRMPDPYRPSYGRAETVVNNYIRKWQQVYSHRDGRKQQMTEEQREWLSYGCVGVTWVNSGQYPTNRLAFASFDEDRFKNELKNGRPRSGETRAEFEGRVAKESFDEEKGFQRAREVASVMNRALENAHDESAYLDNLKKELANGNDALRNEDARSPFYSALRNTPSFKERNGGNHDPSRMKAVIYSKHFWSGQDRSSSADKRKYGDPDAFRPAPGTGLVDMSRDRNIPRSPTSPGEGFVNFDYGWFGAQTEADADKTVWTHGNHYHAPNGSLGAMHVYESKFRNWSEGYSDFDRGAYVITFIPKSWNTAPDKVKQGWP
Assay: MTG-catalyzed conjugation of 3-APA to mAbs, degree of labeling (DOL) by LC-MS
Format: biochemical, S. mobarensis
Conditions: different IgG backgrounds, MTG and 3-APA at 37° C., per full mAb
Protocol: To assess the suitability of the mAb variants for MTG-catalyzed conjugation, intact mAbs (1 mg/mL) were reacted with 3-azido propylamine (3-APA; 20-100-fold molar excess) and MTG (Activa TI, 5-20% w/v or Zedira, 5-20 units/mg of mAb) in PBS buffer at 22-37° C. for 30 min to overnight. Reactions were stopped by the addition of MTG blocker (Zedira) to 100 μM and analyzed by LC-MS following deglycosylation with PNGase F and reduction with dithiothreitol. The degree of labeling (DOL) was determined by mass spectrometry.
LC-MS was performed on an Agilent 1260 HPLC system connected to an Agilent G6224 MS-TOF Mass Spectrometer. LC was run on an Agilent RP-mAb C4 column (2.1×50 mm, 3.5 micron) at a flow rate of 1 mL/min with the mobile phase 0.1% formic acid in water (A) and 0.1% formic acid in acetonitrile (Sigma-Aldrich Cat #34688) (B) and a gradient of 20% B (0-2 min), 20-60% B (2-3 min), 60-80% B (3-5.5 min). The instrument was operated in positive electro-spray ionization mode and scanned from m/z 600 to 6000. Mass to charge spectrum was deconvoluted using the Maximum Entropy algorithm and DOL was estimated using relative intensities of the deconvoluted masses corresponding to intact mAb (for intact mass) or mAb heavy chain (for reduced mass) with the addition of multiples of 83 Da (corresponding to 3-APA).
Instrument settings included: capillary voltage 3500V; fragmentor 175V; skimmer 65V; gas temperature 325C; drying gas flow 5.0 L/min; nebulizer pressure 30 psig; acquisition mode range 100-7000 with 0.42 scan rate.

Row | Substance | DOL 18 hr
1 | Panitumumab WT deglycosylated: deglycosylated WT panitumumab | 2.0
2 | Pertuzumab [Pertuzumab WT] | 1.2
3 | Panitumumab [Panitumumab WT] | 1.2
4 | Pertuzumab WT deglycosylated: deglycosylated WT pertuzumab | 2.0
